Values of other authors in publication PMC9456187, “The Ambivalence of Connexin43 Gap Peptides in Cardioprotection of the Isolated Heart against Ischemic Injury” (International Journal of Molecular Sciences, 2022).

Test system: isolated subsarcolemmal mitochondria, calcium-induced mitochondrial permeability transition
Conditions: rat heart, Gap27 at substantially higher concentrations than in present study, ref [34]
From the text: The detailed mechanisms behind IPC are still debated, but multiple studies confirm that mitochondria play a crucial role in the observed infarct size limitation. IPC promotes translocation of signaling kinases to mitochondria, changes volume regulation of mitochondria, opens mitochondrial potassium channels and delays ROS-induced mitochondrial permeability transition. Connexin43 can be detected in subsarcolemmal mitochondria using immunoblotting of extracts from isolated mitochondria. The role of connexin43 in mitochondria has recently been reviewed ...

B1: Fibroblast growth factor 2: Fibroblast growth factor 2 triggers the protection of rat heart mitochondria (protein, UniProt P13109 10-154, looked up)
Fibroblast growth factor 2: PALPEDGGGAFPPGHFKDPKRLYCKNGGFFLRIHPDGRVDGVREKSDPHVKLQLQAEERGVVSIKGVCANRYLAMKEDGRLLASKCVTEECFFFERLESNNYNTYRSRKYSSWYVALKRTGQYKLGSKTGPGQKAILFLPMSAKS
Q: With B1 as the molecule, how does the “Effect on (FGF2-induced) protection of mitochondria against calcium-induced permeability transition (in words)” value read?
A: triggers the protection of rat heart mitochondria
